Test results published in patent publication US20090214547A1.
Where “and” joins values, the source holds several entries; their conditions need not be identical. Identical values can stand only once.

Tests used:
Peptide GNT-01 [1] = experiment: peptide ELISA, plate 1 overview
PLY Peptide 10146 [2] = experiment: peptide ELISA, plate 1 overview
Peptide GNT-08 [3] = experiment: peptide ELISA, plate 1 overview
Peptide GNT-02 [4] = experiment: peptide ELISA, plate 1 overview
Peptide GNT-07 [5] = experiment: peptide ELISA, plate 1 overview
PsaA Peptide 9144 [6] = experiment: peptide ELISA, plate 1 overview
Peptide GNT-13 [7] = experiment: peptide ELISA, plate 1 overview
Peptide GNT-14 [8] = experiment: peptide ELISA, plate 1 overview
Peptide GNT-06 [9] = experiment: peptide ELISA, plate 2 overview
Peptide GNT-01 [10] = experiment: peptide ELISA, plate 2 overview
PLY Peptide 10146 [11] = experiment: peptide ELISA, plate 2 overview
Peptide GNT-08 [12] = experiment: peptide ELISA, plate 2 overview
Peptide GNT-062 [13] = experiment: peptide ELISA, plate 2 overview
Peptide GNT-02 [14] = experiment: peptide ELISA, plate 2 overview
Peptide GNT-10 [15] = experiment: peptide ELISA, plate 2 overview
Peptide GNT-07 [16] = experiment: peptide ELISA, plate 2 overview
Peptide GNT-04 [17] = experiment: peptide ELISA, plate 2 overview
Peptide GNT-061 [18] = experiment: peptide ELISA, plate 2 overview
PsaA Peptide 9144 [19] = experiment: peptide ELISA, plate 2 overview
Peptide GNT-13 [20] = experiment: peptide ELISA, plate 2 overview
Peptide GNT-09 [21] = experiment: peptide ELISA, plate 2 overview
Peptide GNT-14 [22] = experiment: peptide ELISA, plate 2 overview
Peptide GNT-05 [23] = experiment: peptide ELISA, plate 2 overview
Peptide GNT-01 [24] = experiment: peptide ELISA, plate 1
PLY Peptide 10146 [25] = experiment: peptide ELISA, plate 1
Peptide GNT-08 [26] = experiment: peptide ELISA, plate 1
Peptide GNT-02 [27] = experiment: peptide ELISA, plate 1
PsaA Peptide 9144 [28] = experiment: peptide ELISA, plate 1
Peptide GNT-13 [29] = experiment: peptide ELISA, plate 1
Peptide GNT-14 [30] = experiment: peptide ELISA, plate 1
Peptide GNT-06 [31] = experiment: peptide ELISA, plate 2
Peptide GNT-01 [32] = experiment: peptide ELISA, plate 2
PLY Peptide 10146 [33] = experiment: peptide ELISA, plate 2
Peptide GNT-08 [34] = experiment: peptide ELISA, plate 2
Peptide GNT-062 [35] = experiment: peptide ELISA, plate 2
Peptide GNT-10 [36] = experiment: peptide ELISA, plate 2
Peptide GNT-07 [37] = experiment: peptide ELISA, plate 2
Peptide GNT-04 [38] = experiment: peptide ELISA, plate 2
Peptide GNT-061 [39] = experiment: peptide ELISA, plate 2
PsaA Peptide 9144 [40] = experiment: peptide ELISA, plate 2
Peptide GNT-13 [41] = experiment: peptide ELISA, plate 2
Peptide GNT-09 [42] = experiment: peptide ELISA, plate 2
Peptide GNT-14 [43] = experiment: peptide ELISA, plate 2
Peptide GNT-05 [44] = experiment: peptide ELISA, plate 2

B1: 22-1C11.1 (antibody, V domains shown)
VH: VKLQESGGGVVQPGRSLRLSCAASGFTFSNYGMHWVRQAPGKGLEWVAVIWYDGSNKYYADFVKGRFTISRDNSKNTLYLQMNSLRAEDTAVYYCARRGNYYGLGSFYYYGMDVWGQGTTVTVSS
VL: DIQMTQSPATLSLSPGERATLSCRASQSVSSYLAWYQQKPGQAPRLLIYDASNRATGIPARFSGSGSGTDFTLTISSLEPEDFAVYYCQQCSNWHPTFGQGTKLEIKR
Elisa reading (Peptide GNT-01 [1]): 0.72
Elisa reading (PLY Peptide 10146 [2]): 1.09
Elisa reading (Peptide GNT-08 [3]): 0.71
Elisa reading (Peptide GNT-02 [4]): 2.05
Elisa reading (Peptide GNT-07 [5]): 0.24
Elisa reading (PsaA Peptide 9144 [6]): 0.16
Elisa reading (Peptide GNT-13 [7]): 0.11
Elisa reading (Peptide GNT-14 [8]): 0.1
Elisa reading (Peptide GNT-06 [9]): 0.56
Elisa reading (Peptide GNT-01 [10]): 1.27
Elisa reading (PLY Peptide 10146 [11]): 1.58
Elisa reading (Peptide GNT-08 [12]): 0.73
Elisa reading (Peptide GNT-062 [13]): 0.84
Elisa reading (Peptide GNT-02 [14]): > 3
Elisa reading (Peptide GNT-10 [15]): 0.4
Elisa reading (Peptide GNT-07 [16]): 0.68
Elisa reading (Peptide GNT-04 [17]): 0.75
Elisa reading (Peptide GNT-061 [18]): 0.61
Elisa reading (PsaA Peptide 9144 [19]): 0.54
Elisa reading (Peptide GNT-13 [20]): 0.26
Elisa reading (Peptide GNT-09 [21]): 0.48
Elisa reading (Peptide GNT-14 [22]): 0.26
Elisa reading (Peptide GNT-05 [23]): 0.82
Elisa reading (Peptide GNT-01 [24]): 0.72 and 1.16 and 1.7
Elisa reading (PLY Peptide 10146 [25]): 1.09 and 1.71 and 2.24
Elisa reading (Peptide GNT-08 [26]): 0.71 and 0.91 and 1.52
Elisa reading (Peptide GNT-02 [27]): 2.05 and 2.51 and 3
Elisa reading (PsaA Peptide 9144 [28]): 0.16 and 0.1 and 0.19
Elisa reading (Peptide GNT-13 [29]): 0.11 and 0.12 and 0.25
Elisa reading (Peptide GNT-14 [30]): 0.1 and 0.22
Elisa reading (Peptide GNT-06 [31]): 0.56
Elisa reading (Peptide GNT-01 [32]): 1.27
Elisa reading (PLY Peptide 10146 [33]): 1.58
Elisa reading (Peptide GNT-08 [34]): 0.73
Elisa reading (Peptide GNT-062 [35]): 0.844
Elisa reading (Peptide GNT-10 [36]): 0.403
Elisa reading (Peptide GNT-07 [37]): 0.681
Elisa reading (Peptide GNT-04 [38]): 0.748
Elisa reading (Peptide GNT-061 [39]): 0.61
Elisa reading (PsaA Peptide 9144 [40]): 0.539
Elisa reading (Peptide GNT-13 [41]): 0.264
Elisa reading (Peptide GNT-09 [42]): 0.475
Elisa reading (Peptide GNT-14 [43]): 0.257
Elisa reading (Peptide GNT-05 [44]): 0.816
